{
  "source": "patent US9527898B2",
  "about": "“Oxyntomodulin derivatives and pharmaceutical composition for treating obesity comprising the same” (Hanmi Science Co., Ltd., dated 2016)",
  "binders": {"B1": {"name": "oxyntomodulin derivative of SEQ ID NO. 11 (peptide)", "peptide": "HGEGTFTSDLSRQMEEEAVRLFIEWAAHSQGTFTSDYSRYLDK", "modifications": "not fully specified (residue 1, N-terminus); also: N-terminal CA (4-imidazoacetyl), whether it replaces His1 not given here"}, "B2": {"name": "oxyntomodulin derivative of SEQ ID NO. 17 (peptide)", "peptide": "HSQGTFTSDYSRYLDEEAVRLFIEWIRNTKRNRNNIA", "modifications": "not fully specified (residue 1, N-terminus); also: N-terminal CA (4-imidazoacetyl), whether it replaces His1 not given here"}},
  "note": "Non-standard residues stand in square brackets, D forms with d. No end group written: not given here. *: point of attachment. Acetyl(2-(4-imidazolyl)) = O=C(Cc1c[nH]cn1)*; Aib = CC(C)(N)C(=O)O",
  "data": [
    {"target": "human GLP-1 receptor (human, UniProt P43220)", "assay": "cell-based or functional assay", "units": {"EC50 (nM), cAMP, CHO/GLP-1R": "nM"}, "values": [
      {"binder": "HSQGTFTSDYSRYLDEEAVELFIEWLMNTK", "note": "[oxyntomodulin derivative of SEQ ID NO. 13]", "EC50 (nM), cAMP, CHO/GLP-1R": "> 1000"},
      {"binder": "H[Aib]QGTFTSDYSKYLDEKRAKEFVQWLMNTC (also: possible ring formation not assignable from text)", "note": "[oxyntomodulin derivative of SEQ ID NO. 25]", "EC50 (nM), cAMP, CHO/GLP-1R": 1.9},
      {"binder": "B1", "EC50 (nM), cAMP, CHO/GLP-1R": "> 1000"},
      {"binder": "H[Aib]QGTFTSDYSKYLDEKRAKEFVQWLMNTC (also: possible ring formation not assignable from text)", "note": "[oxyntomodulin derivative of SEQ ID NO. 24]", "EC50 (nM), cAMP, CHO/GLP-1R": 1.43},
      {"binder": "H[Aib]QGTFTSDYSKYLDEKRAKEFVCWLMNT", "note": "[oxyntomodulin derivative of SEQ ID NO. 23]", "EC50 (nM), cAMP, CHO/GLP-1R": 2.46},
      {"binder": "H[Aib]QGTFTSDYAKYLDEKRAKEFVQWLMNTC", "note": "[oxyntomodulin derivative of SEQ ID NO. 30]", "EC50 (nM), cAMP, CHO/GLP-1R": 2.2},
      {"binder": "Y[Aib]QGTFTSDYSKYLDEKRAKEFVQWLMNTC", "note": "[oxyntomodulin derivative of SEQ ID NO. 31]", "EC50 (nM), cAMP, CHO/GLP-1R": 12.5}
    ]},
    {"target": "human glucagon receptor (human, UniProt P47871)", "assay": "cell-based or functional assay", "units": {"EC50 (nM), cAMP, CHO/GCGR": "nM"}, "values": [
      {"binder": "HSQGTFTSDYSRYLDEEAVELFIEWLMNTK", "note": "[oxyntomodulin derivative of SEQ ID NO. 13]", "EC50 (nM), cAMP, CHO/GCGR": "> 1000"},
      {"binder": "B1", "EC50 (nM), cAMP, CHO/GCGR": "> 1000"},
      {"binder": "{Acetyl(2-(4-imidazolyl))}-HGEGTFTSDLSRQMEEEAVRLFIEWAAHSQGTFTSDYSKYLD", "note": "[oxyntomodulin derivative of SEQ ID NO. 6]", "EC50 (nM), cAMP, CHO/GCGR": "> 1000"},
      {"binder": "H[Aib]QGTFTSDYSKYLDEKRAKEFVCWLMNT", "note": "[oxyntomodulin derivative of SEQ ID NO. 23]", "EC50 (nM), cAMP, CHO/GCGR": 5.8},
      {"binder": "H[Aib]QGTFTSDYSKYLDEKRAKEFVQWLMNT", "note": "[oxyntomodulin derivative of SEQ ID NO. 28]", "EC50 (nM), cAMP, CHO/GCGR": 0.3},
      {"binder": "B2", "EC50 (nM), cAMP, CHO/GCGR": "> 1000"},
      {"binder": "H[Aib]QGTFTSDYAKYLDEKRAKEFVQWLMNTC", "note": "[oxyntomodulin derivative of SEQ ID NO. 30]", "EC50 (nM), cAMP, CHO/GCGR": 80.2},
      {"binder": "Y[Aib]QGTFTSDYSKYLDEKRAKEFVQWLMNTC", "note": "[oxyntomodulin derivative of SEQ ID NO. 31]", "EC50 (nM), cAMP, CHO/GCGR": 1}
    ]}
  ]
}
